Reference: patent publication US7645449B2, “Sensitizing cells for apoptosis by selectively blocking cytokines” (priority 2003, dated 2010)

Tests used:
[1] = system: RT112 bladder carcinoma cells; assay: MTS viability of RT112 cells: chemotherapy- and anti-CD95-induced apoptosis; type: cell-based, human
Text: Anticancer treatment using cytotoxic drugs mediates cell death by activating the intracellular apoptotic program. To determine whether IL-4 was able to inhibit apoptosis induced by chemotherapeutic drugs, bladder tumor cells (RT112) were pretreated for two days with different concentrations of IL-4 and subsequently exposed to camptothecin or etoposide.
Human LNCAP prostate cancer cell line and human MDA-MB-231 breast cancer cell line were obtained from the American Type Culture Collection (ATCC, Manassas, Va.). Human RT112 bladder carcinoma cell line was kindly provided by Dr. M. Cippitelli (Regina Elena Cancer Institute, Rome, Italy). Cells were grown in RPMI 1640 (Life Technologies Inc., Grand Island, N.Y.) containing 10% heat inactivated fetal bovine serum supplemented with L-Glutamine 2 mM and 100 units/ml Penicillin-Streptomycin. Cells were kept in 5% CO2 atmosphere and routinely passaged when 80-85% confluent. […] Camptothecin, cisplatin, daunorubicine, etoposide and vincristine were purchased from Sigma-Aldrich Inc. (Sain Louis, Mo.) and resuspended in DMSO (cisplatin, camptothecin and etoposide) or in H2O (daunorubicine and vincristine). Anti-CD95 agonistic antibody (clone CH11) was purchased from Upstate Biotechnology (Lake Placid, N.Y.). Monoclonal antibody anti-Bcl-XL (H5, mouse) was from Santa Cruz (Santa Cruz, Calif.), antibody anti-cFlip/FLAME-1 (NF6, mouse) was kindly provided by Dr. P.H. Krammer (German Cancer Reseach Center, Heidelberg, Germany). Antibody anti β-actin (goat) was purchased from Oncogene (Boston, Mass.):
Cell viability was determined using the CellTiter 96® AQueous One Solution Cell Proliferation Assay (Promega, Madison, Wis.), according to the manufacturer's instructions. The assay is based on reduction of 3-(4,5-dimethylthiazol-2-yl)-5-(3-carboxymethoxyphenyl)-2-(4-sulfophenyl)-2H-tetrazolium, inner salt (MTS) to a colored formazan product that is measured spectrophotometrically. Cells were seeded in 96-well tissue culture plates and incubated at 37° C. in a 5% CO2 incubator overnight. […] After two days cells were treated for 10 hours with chemotherapeutic drugs or anti-CD95, then 20 μl of MTS were added to each well. After 3 hours of incubation at 37° C. with the MTS reagent, the plates were read on a Multilabel Counter (Victor2, Wallac, Perkin-Ehmer Inc., Norwalk, Conn.) and dye absorbance was measured at 490 nm.
The percentage of apoptotic cells was derived from the percentage of viable cells that was directly calculated from the values of the MTS assay. The percentage of protection from apoptosis was determined as: % protection=100%−X
X was calculated with the formule: (C1−C2):100=(S1−S2):X where:
C1 is the viability of untreated control cells, C2 is the viability of control cells treated with the apoptotic stimulus, S1 and S2 are the viability of cells preincubated with cytoldnes or transduced with anti-apoptotic genes, untreated (S1) or treated (S2) with the apoptotic stimuli.
(A) Percentage of viable RT112 bladder carcinoma cells pre-treated for two days with increasing doses of IL-4 (5, 10, 20, 50 and 100 ng/ml) which were maintained also during incubation with chemotherapeutic drugs and exposed to 50 ng/ml camptothecin of 7 μM etoposide. […] Cell viability was determined after 24 hours using the MTS assay as described in Materials and Methods and the percentage of protection from cell death was calculated as described in Materials and Methods. The results shown are the mean ±s.d. of four independent experiments.
When the cytokine is removed by washing the percentage of protection is downmodulated.
(E) IL-4 prevents anti CD95-induced apoptosis. […] Successively, cells were incubated with 30 ng/ml anti-CD95 agonistic antibody in standard medium, Control cells (−) were stimulated with anti-CD95 in the absence of cytokine pre-treatment. The results shown are the mean ±s.d. of four independent experiments.

[2] = system: freshly isolated normal breast epithelial cells; assay: Bcl-XL expression and chemotherapy-induced apoptosis in normal breast epithelial cells exposed to IL-4; type: cell-based, human
Text: To confirm that IL-4-induced upregulation of Bcl-XL is able to protect epithelial breast cells from apoptosis, freshly isolated normal breast epithelial cells were exposed to IL-4 and analyzed Bcl-XL expression and sensitivity to a panel of chemotherapeutic drugs commonly used to treat breast cancer. […] To confirm that in vivo exposure to IL-4 is responsible for high Bcl-XL expression and resistance to chemotherapy in breast cancer, Bcl-XL expression and sensitivity to apoptosis of primary breast carcinoma cells cultivated in the presence or absence of IL-4 was measured Freshly isolated breast cancer cells expressed high levels of Bcl-XL and were scarcely sensitive to chemotherapeutic drugs (FIGS. 14C and D). […] Thus, in vivo IL-4 production promotes the survival of breast cancer cells. […]
Cell pellets were washed twice with cold PBS and lysed on ice for 30 minutes with 1% NP40 lysis buffer (20 mM Tris-HCl pH 7.2, 200 mM NaCl, 1% NP40) in the presence of 1 mM phenylmethylsulphonyl fluoride (PMSF) and 2 μg/ml each of aprotinin, leupeptin and pepstatin. […] Lysate concentration was determined using the Bio-Rad protein assay (Bio-Rad Laboratories, Richmond, Calif.). […]

B1: IL-4: human recombinant IL-4 (protein, UniProt P05112 25-153, looked up)
Interleukin-4: HKCDITLQEIIKTLNSLTEQKTLCTELTVTDIFAASKNTTEKETFCRAATVLRQFYSHHEKDTRCLGATAQQFHRHKQLIRFLKRLDRNLWGLAGLNSCPVKEANQSTLENFLERLKTIMREKYSKCSS
[1]; 20 ng/ml IL-4 for two days, camptothecin or etoposide, viability after 24 hours
  protection from chemotherapy-induced apoptosis at 20 ng/ml: able to protect cells from chemotherapy-induced apoptosis
[1]; 7 μM etoposide, IL-4 maintained in the culture medium
  time course of protection from etoposide-induced cell death: protected from etoposide-induced cell death from day 2 to day 4
[1]; 24 hours of IL-4 pretreatment
  protective effect after shorter pretreatment: already consistent
[1]; IL-4 higher than 20 ng/ml (50, 100 ng/ml)
  protection from chemotherapy-induced apoptosis at higher concentrations: protective effect is maintained
[1]; pretreated two days with IL-4, then camptothecin or etoposide
  protection of RT112 cells from drug-induced death: significantly protected from drug-induced death
[1]; two days IL-4 pretreatment, 30 ng/ml anti-CD95 agonistic antibody
  CD95-induced apoptosis in bladder cancer cells: significantly inhibit CD95-induced apoptosis
[2]; IL-4 pretreatment
  apoptosis of normal breast epithelial cells induced by cisplatin, doxorubicin and taxol: significantly protected
[2]; IL-4 treatment
  Bcl-XL expression in normal breast epithelial cells: considerably increased the expression of Bcl-XL
